“Also recorded” adds a separate entry of the source.

For experiment [1], the target named is T1, fibrinogen (Homo sapiens, UniProt P02671+P02675+P02679).
T1 sequence (P02671 20-629 limits assumed): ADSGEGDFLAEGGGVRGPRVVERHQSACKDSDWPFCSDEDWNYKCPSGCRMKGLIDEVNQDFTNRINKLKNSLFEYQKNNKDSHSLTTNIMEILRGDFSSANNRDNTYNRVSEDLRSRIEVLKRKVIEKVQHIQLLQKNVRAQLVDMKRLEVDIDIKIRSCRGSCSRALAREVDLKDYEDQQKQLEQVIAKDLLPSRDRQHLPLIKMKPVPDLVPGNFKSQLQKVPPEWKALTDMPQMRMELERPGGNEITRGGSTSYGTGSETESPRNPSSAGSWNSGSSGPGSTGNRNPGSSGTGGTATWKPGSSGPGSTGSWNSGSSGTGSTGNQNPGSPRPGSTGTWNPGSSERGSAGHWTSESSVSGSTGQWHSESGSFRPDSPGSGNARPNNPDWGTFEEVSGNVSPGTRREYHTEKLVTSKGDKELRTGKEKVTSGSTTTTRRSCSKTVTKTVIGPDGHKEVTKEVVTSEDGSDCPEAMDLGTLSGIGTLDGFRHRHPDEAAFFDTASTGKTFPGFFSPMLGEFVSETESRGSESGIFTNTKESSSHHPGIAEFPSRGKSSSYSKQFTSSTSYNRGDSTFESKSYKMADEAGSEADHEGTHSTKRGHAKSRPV
T1 sequence (P02675 31-491): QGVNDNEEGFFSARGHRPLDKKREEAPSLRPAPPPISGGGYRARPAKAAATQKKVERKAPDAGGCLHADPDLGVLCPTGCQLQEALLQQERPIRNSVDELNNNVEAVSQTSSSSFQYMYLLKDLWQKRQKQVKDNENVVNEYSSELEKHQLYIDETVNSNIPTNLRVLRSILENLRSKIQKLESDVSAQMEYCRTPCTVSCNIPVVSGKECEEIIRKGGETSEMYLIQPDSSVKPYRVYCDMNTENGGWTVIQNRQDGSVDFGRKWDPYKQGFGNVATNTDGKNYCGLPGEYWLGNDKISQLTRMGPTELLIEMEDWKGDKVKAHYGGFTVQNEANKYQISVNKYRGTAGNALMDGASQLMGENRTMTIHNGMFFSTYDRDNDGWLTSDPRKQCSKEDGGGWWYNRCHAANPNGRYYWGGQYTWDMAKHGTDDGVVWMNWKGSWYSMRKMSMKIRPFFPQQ
T1 sequence (P02679 27-433 limits assumed): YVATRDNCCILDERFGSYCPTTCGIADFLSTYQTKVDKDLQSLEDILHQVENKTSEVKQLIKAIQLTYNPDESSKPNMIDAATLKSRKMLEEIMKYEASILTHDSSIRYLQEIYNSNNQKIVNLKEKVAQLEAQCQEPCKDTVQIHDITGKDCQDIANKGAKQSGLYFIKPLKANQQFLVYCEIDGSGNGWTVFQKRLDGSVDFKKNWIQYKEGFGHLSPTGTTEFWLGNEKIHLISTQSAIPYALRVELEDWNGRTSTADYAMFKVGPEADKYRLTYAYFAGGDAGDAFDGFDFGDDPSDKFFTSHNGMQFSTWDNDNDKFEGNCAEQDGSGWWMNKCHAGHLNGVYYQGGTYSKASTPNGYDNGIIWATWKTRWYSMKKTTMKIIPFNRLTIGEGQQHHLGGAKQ
The experiment in a line: Fibrinogen binding assay by ELISA. Conditions: plate coated with 1 mg/ml fibrinogen, various concentrations, anti-His6-peroxidase detection. The protocol:
(§1) A polystyrene 96-well plate (Nunc® Maxisorp EUSA-plates) was coated with 1 mg/ml fibrinogen (Tisseel®, Baxter AG, Vienna) overnight at 4° C. and then blocked with blocking solution (PBS+1% BSA) for 2 hours at room temperature CRT). After washing three times with PBS, purified peptides were added in various dilutions to the plate and incubated for 1 hour at RT. After the three times washing with PBS, a monoclonal anti-His6-peroxidase antibody (Sigma-Aldrich, Vienna), diluted in PBS+0.1% Tween (Sigma-Aldrich, Vienna) was added and incubated for 1 hour at RT. Finally, the plate was washed three times with PBS again and wells were incubated with o-phenylenediaminehydrochlorid substrate. Absorbance was measured at 492 nm and 620 nm. For fibrin binding analysis, the plate was first coated with fibrinogen overnight at 4° C. and then incubated with 10 I.U./ml thrombin (Tisseel, Baxter AG, Vienna) for 30 minutes at 37° C. The following procedure was the same as described above. For the surface plasmon resonance (SPR) method fibrinogen was coupled to a gold sensor chip (10% COOH—(PEG)6-C11—SH, 90% OH(PEG)3-C11—SH; Reichert Analytical, NY, USA) by amine chemistry using EDC (1-ethyl-3-[3-dimethylaminopropyl]carbodiimide hydrochloride) and NHS (N-hydroxysuccinimide) (Pierce, Ill., USA). Uncoupled sites on the gold sensor chip were blocked with 1 M ethanolamine pH 8.5 (Sigma-Aldrich, MO, USA). The purified recombinant proteins and peptides were passed over the chip's surface at a flow rate of 0.4 ml/min to 0.8 ml/min and allowed to interact. The signals were detected and recorded at the Reichert SR7000 Surface Plasmon Resonance Analytical Instrument (Reichert Analytical, NY, USA). After each measurement the sensor chip surface was regenerated by a pulse with 100 mM phosphoric acid (Mallinckrodt Chemicals, NJ, USA) after each application of the samples. Association and dissociation signals were fitted to one association curve using a prism software calculation program.
Purified, proteins and peptides in different concentrations were used for testing the binding affinity to fibrinogen and fibrin (FIG. 5).
Background: ELISA stands for enzyme-linked immunosorbent assay.

The target in experiment [2] is T1, fibrinogen. Description: Surface plasmon resonance (SPR) binding to fibrinogen coupled to gold sensor chip. As to conditions: for binding signal (SPR): fibrinogen on sensor chip, fitted association curves. As for the experimental part: as §1
(Surface plasmon resonance follows binding to a sensor surface in real time, without labels.)

Experiment [3] concerns mouse myoblast cell line (C2C12). Description: Biological activity: viability (MTT) assay of mouse myoblast C2C12 cells. Conditions: for proliferative activity / cell growth effect: 48 hours, DMEM+1% FCS, MTT. The experiment is classed as cell-based. As for the experimental part: A moose myoblast cell line (C2C12; ECACC (Sigma-Aldrich, Vienna)) was grown in Dulbecco's Modified Eagle Medium (DMEM) with 10% fetal calf serum (FCS). At 50-60% confluence cells were trypsinized and transferred to a 24-well plate (1×10^4/well).
Following a 48-hour-culture period at 37° C., cells were washed with DMEM only and then covered with medium (DMEM+1% FCS) containing various concentrations of hFGF-2 or hFGF-2 peptides. After 48 hours number of viable cells was determined by adding 3-(4,5-dimethylthiazol-2-yl)-2,5-diphenyltetrazolium bromide (MTT, Sigma-Aldrich, Vienna) as previously described {M05}.

Turning to “EDGRLLASKCVTDECFFFERLESNNYNTYRSRHHHHH (EDGRLLASKCVTDECFFFERLESNNYNTYRSRHHHHH; synthetic peptide pep 3 (37 aa), peptide #3, pep3 with C-terminus 5x HIS-tag) [also expressed recombinantly]”, in the experiment with fibrinogen [1], the “binding affinity to fibrinogen” value is given as “high affinity”. The “binding signal (SPR)” value in the experiment with fibrinogen [2] was “weak and short binding signals”. Moreover, the “activity retained relative to the full length protein” value in experiment [3] (relative to full length hFGF-2) is recorded as “approximately 50%”.

In the case of “KCVTDECFFF ERLESNNYNT YRSRHHHHH (KCVTDECFFFERLESNNYNTYRSRHHHHH; synthetic peptide pep 4 (29 aa), peptide #4, pep4 with C-terminus 5x HIS-tag)”, in the experiment with fibrinogen [1], the “binding affinity to fibrinogen” value is given as “significantly lower binding”. Further, the “binding characteristics to fibrinogen (SPR)” value with fibrinogen [2] (compared to full-length recombinant hFGF-2) is “confirmed the binding affinity to fibrinogen”. For the same sequence, the “binding signal (SPR)” value in the experiment with fibrinogen [2] is reported as “significantly lower compared to hFGF-2 but more consistently over a longer period of 300 seconds; also recorded: lower binding signals than that of hFGF-2”. Further, the “proliferative activity / cell growth effect” value in experiment [3] is recorded as “less activity, but similar to full length hFGF-2”.

“FERLESNNYN TYRSRHHHHH (FERLESNNYNTYRSRHHHHH; synthetic peptide pep 5 (20 aa), peptide #5, pep5 with C-terminus 5x HIS-tag)”: the “binding affinity to fibrinogen” value with fibrinogen [1] is on record as “nearly no binding affinity”; with fibrinogen [1] (listed as Pep5), “little binding affinity”. For the same sequence, in the experiment with fibrinogen [2], the “binding signal (SPR)” value was “weak and short binding signals”. The “proliferative activity / cell growth effect” value in experiment [3] is reported as “did not stimulate C2C12 cell growth; also recorded: little biological activity”.

The values above are taken from patent US20120316113A1, “FGF BASED FIBRIN BINDING PEPTIDES” (Baxter Healthcare S.A., priority 2011, published 2012).
